Experimental data published in patent US20190309059A1 (SHANGHAI PHARMAEXPLORER, published 2019).

What was measured:
[1] = molecular target: mouse IL-13 (purchased from sino biological) (mouse) (UniProt P20109); test: ELISA, mouse IL-13; antibody at 0.11 nM
[2] = molecular target: mouse IL-13 (purchased from sino biological) (mouse) (UniProt P20109); test: ELISA, mouse IL-13; antibody at 0.53 nM
[3] = molecular target: mouse IL-13 (purchased from sino biological) (mouse) (UniProt P20109); test: ELISA, mouse IL-13; antibody at 2.67 nM
[4] = molecular target: mouse IL-13 (purchased from sino biological) (mouse) (UniProt P20109); test: ELISA, mouse IL-13; antibody at 0.000 nM
[5] = molecular target: mouse IL-13 (purchased from sino biological) (mouse) (UniProt P20109); test: ELISA, mouse IL-13; antibody at 0.001 nM
[6] = molecular target: mouse IL-13 (purchased from sino biological) (mouse) (UniProt P20109); test: ELISA, mouse IL-13; antibody at 0.004 nM
[7] = molecular target: mouse IL-13 (purchased from sino biological) (mouse) (UniProt P20109); test: ELISA, mouse IL-13; antibody at 0.021 nM
[8] = molecular target: cynomolgus IL-13 (purchased from sino biological) (cynomolgus) (UniProt Q0PW92); test: ELISA, cynomolgus IL-13; antibody at 2.67 nM
Sequence of cynomolgus IL-13 (purchased from sino biological) (cynomolgus) (Q0PW92 entry or part of it): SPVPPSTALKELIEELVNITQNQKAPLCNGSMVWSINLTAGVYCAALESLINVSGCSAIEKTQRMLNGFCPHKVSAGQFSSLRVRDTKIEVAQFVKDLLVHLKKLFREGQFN

[9] = molecular target: cynomolgus IL-13 (purchased from sino biological) (cynomolgus) (UniProt Q0PW92); test: ELISA, cynomolgus IL-13; antibody at 0.53 nM
[10] = molecular target: cynomolgus IL-13 (purchased from sino biological) (cynomolgus) (UniProt Q0PW92); test: ELISA, cynomolgus IL-13; antibody at 0.004 nM
[11] = molecular target: cynomolgus IL-13 (purchased from sino biological) (cynomolgus) (UniProt Q0PW92); test: ELISA, cynomolgus IL-13; antibody at 0.021 nM
[12] = molecular target: T1, mouse IL-13 (purchased from sino biological) (mouse, UniProt P20109 19-131); test: ELISA, mouse IL-13; antibody at 0.004 nM
T1 chain: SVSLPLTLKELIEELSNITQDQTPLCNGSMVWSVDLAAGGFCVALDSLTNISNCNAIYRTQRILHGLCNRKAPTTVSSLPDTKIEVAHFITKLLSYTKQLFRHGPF

[13] = molecular target: cynomolgus IL-13 (purchased from sino biological) (cynomolgus) (UniProt Q0PW92); test: ELISA, cynomolgus IL-13; antibody at 333.3 nM

**Q.** Which OD450 nm [1] does the source give for IgG control (mouse IgG) (antibody) here?
**A.** The OD450 nm was 0.08.

**Q.** And the OD450 nm [2]?
**A.** Its OD450 nm is 0.08.

**Q.** What about the OD450 nm [3] of the same molecule?
**A.** The OD450 nm was 0.08.

**Q.** And the OD450 nm [4]?
**A.** The OD450 nm was 0.1.

**Q.** What about the OD450 nm [5] of the same molecule?
**A.** Its OD450 nm is 0.07.

**Q.** What about the OD450 nm [6] of the same molecule?
**A.** Its OD450 nm is 0.07.

**Q.** And the OD450 nm [7]?
**A.** Its OD450 nm is 0.07.

**Q.** What about the OD450 nm [8] of the same molecule?
**A.** The OD450 nm was 0.1.

**Q.** What about the OD450 nm [9] of the same molecule?
**A.** The OD450 nm was 0.08.

**Q.** And the OD450 nm [10]?
**A.** Its OD450 nm is 0.061.

**Q.** And the OD450 nm [11]?
**A.** The OD450 nm was 0.068.

B1: 29D9H8 (lead antibody, mouse hybridoma) (antibody, V domains shown)
VH: QVQLQQSGAELVRPGASVTLSCKASGYTFTDYEMHWVKQTPVHGLEWIGGIDPETGGTASNQKFKGKAILTADKSSSTAYMELRSLTSEDSAVYYCTSGDYFGGGPFAYWGQGTLVTVSA
VL: DIKMTQSPSSMYASLGERVTITCKASQDINSYLSWFQQKPGKSPKTLIYRANRLVDGVPSRFSGSGSGQDYSLTISSLDYEDMGIYYCLQYDEFPYTFGGGTKLEIK
notes: Mouse monoclonal antibody purified from hybridoma supernatant on Protein G
**Q.** For B1, which OD450 nm [12] is on record?
**A.** The OD450 nm was 0.07.

B2: c29D9H8 (mouse-human chimeric IL-13 antibody) (antibody, V domains shown)
VH: B1 VH
VL: B1 VL
**Q.** How did the OD450 nm [13] turn out when B2 was run?
**A.** The OD450 nm was 3.7.

B3: 28A2E11 (lead antibody, mouse hybridoma) (antibody, V domains shown)
VH: EVQLQQSGAELVKPGASVKLSCTASGFNIKDYYMHWVKQRTEQGLEWIGRIDPEDGETKYAPKFHDKATLTADTSSNTAYLQFSSLASEDTAVYYCTRYDYYGPFAYWGQGTLVTVSA
VL: QAVVTQESVLTTSPGETVTLTCRSSTGAVTTSNYANWVQEKPDHLFTGLIGGTNNRAPGVPARFSGSLIGDKAALTITGAQTEDEAIYFCALWYINHFIFGSGTKVTVL
notes: as for B1
**Q.** With B3 as the molecule, how does the OD450 nm [12] read?
**A.** The OD450 nm was 0.07.

B4: c28A2E11 (mouse-human chimeric IL-13 antibody) (antibody, V domains shown)
VH: B3 VH
VL: B3 VL
**Q.** How did the OD450 nm [13] turn out when B4 was run?
**A.** The OD450 nm was 3.9.
